We go through 19 sequences from a protein production outcome set (Wang et al. 2014).
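Also: failed if final PepcDB status was selected cloned or expressed and not failed if soluble or beyond.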

This data set in a line: label from the status in PepcDB records.
As to “MAKPVVETPLMRQYFQIKQKHPDAILLFRVGDFYETFSEDAIVASEILGITLTRRANGAAQFVELAGFPHHALDTYLPKLVRAGKRVAICDQLEDPKKTKTLVKRGITELVTPGVSTNDNVLSHKENNFLAAVSCGKEVFGISLLDISTGEFMAGQGNADYVEKLLTNYRPKEILVERSERSRFNDLFHWSGFIFDMEDWAFSSENNRLRVLKHFDLKSLKGFGLEELSMAVTAAGAVLNYLDLTQHHQLQHITSLSRLDENRYVRLDKFTVRSLELLSPMNEGGKSLLDIIDHTITPMGARRIRQWIVFPLKDPARIQARQRVVEFFFRHPEERAIIAEHLTEIGDLERLVTKGAMGRISPREMVQLRVALQALEPIKEVCTHADEENLRTLGGKLELCKELRDKILREVMPDAPAALGRGPVIAHGVDATLDELRALAYSGKDYLIKLQQQEIERTGIPSLKVAYNNVFGYYIEVRNTHKDKVPAEWIRKQTLVSAERYITEELKEYEAKILGAEEKIAALEGQLYALLVAELQRYVAPLQQDSQAVASLDCLLSFAESARRYRFICPVVDESFTIDIKAGRHPVIEQQLPADEPYIANDIYLDTDRQQVIIVTGPNMSGKSALLRQTALISLMAQIGSFVPAESARIGMVDSIFTRVGASDNISMGESTFMVEMQEASNILNNLTPRSLVLFDELGRGTSTYDGISIAWSIVEYIHDNPKAHPRTLFATHYHELNELEGQLDRVHNFNVSAREVDGKMLFLRKLEPGGSAHSFGIQVARLGGMPHHIVQRATDILHRLEQEREKIEEEEPKTKDTKRGPSEKVKNASPTLPRDEKGRSIDGYQLSFFQLDDPVLSQIREEILDLNIDNLTPLEALNKLNDIKRILRGY”, the protein production result was “failed”.
Take “MAKSKKIVFTGGGTVGHVTLNLILIPKFLKDGWEVHYIGDKHGVEHEQIDKSGLDVTFHSIATGKLRRYFSWQNMLDVFKVGWGILQSIAIIAKIRPQALFSKGGFVSVPPVIASKLLRVPVYVHESDLSMGLANKIAYKFATTMFTTFEQSKTLVKTRHVGAITKVGMTRFDNSDQLDKIKEQFDEKLKTVLFIGGSAGAKVFN”: the protein production entry is recorded as “failed”.
In the case of “MAKSRLLLSELLDQLSFALCIVRNDYVIVKVNEYFESRVIFDGETMQGKNILELFPESADYLKRKIDTALVIESSSFSSWEQKPHLLPFKSSRPVSGEEEQMYQNLEVIPIHSEDGTIEHVCLCVYDVTIQASQQQ”, the protein production result is given as “not failed”.
As for “MAKVSVYIIAYNEEQKIEPALQSVTWADEIVVIDSFSTDRTAEIARKYTDKVIQVPFEGFGKLRNSAIAATSHEWIFSLDTDERCTEEAKNEILAIIDSPDALDAYYVPRRNIFMGRWVKHSGWYPDYRQPQLFRRGAQVFTDEVVHESFTTIGRVGHMKNAIWQIPFRNFEQMISKIDRYSTLGAAKMTAKGVRPGMGKALFHALFAFFRMYILRLGILDGWAGFVIALYTFEGTFYRYAKQVEAARGWVMTRPEELER”, the protein production result is “failed”.
As to “MAKVVKLEPISRETTVNTNDNLLSALLDSELHVLKECGGRGMCATCHVYIKEGMESLSPINKREQRTLEVITTANATSRLACQARVLGPGVVVELPSGMYVNAVEDIESLIGRRAEQDILHPLDGRVLVEAGKLITRTMITQLKDTQVQVGQYFANTSDALEHHHHHH”, the protein production result is “not failed”.
Turning to “MAKYFGTDGIRGEVANSTITVEFTQKLGNAVGSLINQKNYPKFVIVGQDTRSSGGFLKFALVSGLNAAGIDVLDLGVVPTPVVAFMTVKHRAAAGFVITASHNKFTDNGIKLFSSNGFKLDDALEEEVEDMIDGDFIYQPQFKFGSYKILANAIDEYIESIYSRFAKFVNYKGKVVVDCAHGAASHNFEALLDKFGINYVSIASNPDGLNINVGCGATCVSNIKKAVKEQKADLGISLDGDADRIIIVDENGQEIDGDGILNILAQYSDICGGTNGIVGTQMTNMSYENHYRANKIPFIRSKVGDRYVLEDLVKYGYKIGGESSGHVINLNFGTTGDGLFTAIQLLAIFSQADKPVSEFKLQGELMQQTLINVPLTKKVAREDLQKVASDVNDVEKRLGNRGRVLLRPSGTEPVLRVMVEADDKSLATNEAEYLVEKVKQKLV”, the protein production entry is recorded as “not failed”.
For the sequence “MAKYNEIAKKKREAKADRKRAIHGDPLTNKLKTRTPVPSVSGKRQRKLLRKWRREQKDMVEKGLVTMEDVEMASAQAASEDSKKSPRKFSVKKSLKLNKLNNKGKKKKNQKASGEKSADCMLE”, the protein production entry is given as “failed”.
As to “MALAMNRSITAITVTHNSAHTVRGALARLPPGVEIVCVDNASTDDLSTALSDLAVHRIDNPVNLGFGRACNIGAAAATGEYLLFINPDVRLGTDAVDALLQAAERYPNCGVFVPRTNTVDGRLWFREESEIDRLSGVSLPTRIRQVWGDCCVRFVNGGVFMIKRTLFLDTGGFDEDIFLYFEDDDLSYRLLQRDEPMILVSGAHAVHDIGTSVAQSTRSRIFRYRSKMRSEIHLRKKYGIAYSPFVDILRYSTKIGFYCLTLNRNRLINSLGRLIGIFDSILDRSRANRNGGYVALEHHHHHH”, the protein production entry was “not failed”.
In the case of “MALDEAPAEARPGSRAVELEIDGRSRIFDIDDPDLPKWIDEEAFRSDDYPYKKKLDREEYEETLTKLQIELVKVQFWMQATGKRVMAVFEGRDAAGKGGAIHATTANMNPRSARVVALTKPTETERGQWYFQRYVATFPTAGEFVLFDRSWYNRAGVEPVMGFCTPDQYEQFLKEAPRFEEMIANEGIHLFKFWINIGREMQLKRFHDRRHDPLKIWKLSPMDIAALSKWDDYTGKRDRMLKETHTEHGPWAVIRGNDKRRSRINVIRHMLTKLDYDGKDEAAIGEVDEKILGSGPGFLR”, the protein production result is listed as “not failed”.
For the sequence “MALDSSGKQPEQQQQQQPRASSGNGEARLKLRRTPNEEHEPENYEDLPLDYSPSLFTSLERYLPEQLLNSTRIDKASFMRDLLLRYSPDTERVRVLRHKEYRDKIMSSYQRLHGEIYTLDPSSFFAPSFLGAFSRKSEPNFRSSMVESYPGIFTFEMFKPQFCEMLLAEVEHMEKWVYDSRSTIMRPNTMNNFGVVLDDFGFDSMLQKLVDDFISPIAQVLFPEVCGTSLDSHHGYIVEYGKDRDVDLGFHVDDSEVSLNVCLGKQFSGGELYFRGVRCDKHVNSDSTEKEVYDYSHVPGHAILHRGRHRHGARATTSGHRANLILWCRSSTFREMKNYQRDFSGWCGGCKLDKQRRQRDSINATKEILARKAAEKTLVELASKSCAE”, the protein production entry was “failed”.
In the case of “MALEPAEIFEKVSPSVWEVRVIGPDGKGLSMGSAVVIGDGVVITNCHVLRGGKQVWLKRGNANFGARLQYPDVERDLCQLRVADFHYPPVTLAPGSALVTGQKVYAIGNPLGLELTISEGLISSLRTDDDGRLKSVQTSAAISRGSSGGGLFDANGRLIGITDHQVVLTLGQNLNFAIPADWIADVPARAQKALAARAAAASAVVASTPAPQSAAPTPAPAPAPRHQGELGPNQQTGFSVYLQKTWPKAFVAADGDHYYYWTGKNAELYALSACQERWQNCSVYARNNTVVEPVEGTGERPGAAR”, the protein production result is on record as “failed”.
For “MALGLLPLVLLTLSIFIYLVSKMSWKMGALLNFLAGLFTILYVFTLKVGTFEKLDLFGLNIQFEWTNVSFYFSFVSLLVIVSVMLFSTKWLETQKYRASYNMFLLMVTAGSLGVFMAADLITLYVFWEIAVLSSLLIVPMEKKEARKAVVVYAVMSAVGTYAFLYGTFLAYQRYGTLNIHGIAQGMLNDTSIGFKMAVFLLLSAAGIAKSGIFPLHIWLRETHGLAPNAFSSVLSGQFIKLGNYIFLLVLSVIPSLKVFSEVTVYSGIPLPNYILIALGNVSIVIGTLMAIKQDDMKMLMAYSSVANGGYILIGIGTMDPLGFEGGMFHIFNHAVASAVIFMAFAAVIYRTKTQKISEMGGLIHKMPVTFLVYLFSIISLAGIPPMSGFISKWMIYQALVRKGMFITAFLAFFGSIGSFLYVFRPLAGVFLGQLPRKYRDVKEAPAVMLTPMVLLVLISFFLGVWPFPILQAIEKIRVDLDVAPSFKISDPENWLVKGFAGSWNPVLVFGLFLVGFIVAYILYSLFPRPKKVDLLAPHREEGTPINIYTGGEFIYNPDLYHYNTKFYAGFERMYEKHPSWEKLLKMFGKLFHDAGEWIHSWFFEPSSSAYTFWVVVTLLLVFWVRW”, the protein production entry was “failed”.
For the sequence “MALKATIYKADLNIANMDSHHYADYQLTLALHPSETIERLMVRILAFARFADENLQFTKDLFETDEPALWQKDLTGQLEQWIELGQPSEDKLKKASARCKHVVVVTYGQQVDEWWKRNNKVKTLSNVEVWQLAPETTSQLEKLCERTMQLQLNVMDGEWTLLNDHEQVDVSWTKLH”, the protein production entry was “failed”.
As to “MALLKSPIFGICFSLILYTIGQDLFKKSKGFFLLQPLFFAMVAGIIVLVLLAKGLGTDVKTLYTQAYKPGGDLIFWFLNPATIAFAVPLYKKNDAVKKYWKEIISSLIIGMVVSLIIIVAISKAIGLSQASTASMLPQAATTAIALPIAHAIGGNTAITAMACILNAVIIYALGKKLVALFHLNKSEIGVGLGLGTSGHTVGAAFALELGELQGAMAAIAVVVIGLVVDLVIPIFSYMIGLVH”, the protein production entry is listed as “failed”.
As for “MALLLAALLVLLTALLAVRLPAWASALLLGLLAGSGYALGVRSEALPAGALLLLGALAAPRLYLGPRRRKRPERRPPGPKRPAAAGTTAEREALSQRYEILEKVGLGGMATVYKAKDRKTGRLVALKVPQERFLGDPRFVRRFHREAEVLTRMDHPNIVKVYDHGQVEGVHYIAMEFLDGEGLDKLIEERRLSLRQAAAILARVADALKHIHAQGIVHRDIKPGNIMVLKGALREDGVDPRGVRLMDFGIAAGRVLTRLTITGARIGTPVYMSPEQAKGQKLDHRSDIYSLGIVLYEALTGQPPFTGGYETVIHQQIFQMPTPPKQLRPEIPQALSDLVLRMLEKDPAKRPGLDEVVRVLEGPWEEERELPEAQYLLVAVEAKKGAVRLLDLEGTPARLLSGVGSGAGQFPSPPLAVAADPEGGIWVAVFQHGERLVHRLSPQGEVLLSTGPYGMKPGEFLLPVGLAVLEDQVFVLDGETATVSRLDLAGRYQGRFGGQGLGRGTFQDPKALVAAEGHLFVLDYGNRQVQRLTPEGGYLSRYAFRRSREDGALRLLGGVGVGEGRLYLYDVEAVKVRVLDLSGRLLASYPLPLLEGEDRMSLVELLPVGRVLYAARRGSSRIHRISLDTGEALPPLEVYAPVRGLALWRRTP”, the protein production entry is given as “failed”.
To “MALMTNKTRALLIGGHGKVALLATPMLIDASVQVTSMYRNPDHRSEIEALGATTLERDVTTLSVEDWADLLKDFDVVVWSAGNGGKNGADATYAIDRDAAIASIDGAASLGEKAPRYIMVSYIGSSTHTIDPSASFYPYAESKKAADEHLSSTNLDYLILAPAALTLDEVNGVEVIADTNEAAAGRTTSRVLVAEVITEFVVRDFPQTRVLPFVDGESPLEHHHHHH” belongs “not failed”; to “MALNLKQRLEQKFEEEIRFFKGMVSQPKKVGAIVPTSSITAKKMASVINPHSGLPVLELGPGTGVITKAILARGIKPESLTAIEYSTDFYNQLLRSYPGVNFVNGDAFDLDATLGEHKGQMFDSVISAVPMLNFPMAARIKLLDELLKRVPHGRPVVQISYGPISPIVAQPHLYHIRHFDFIVRNIPPAQLWTYTRALEHHHHHH”, “failed”; to “MALPHVVSSPSSTSLSPSFKSKPPFHSLRSLSPTVDNRRRCKLNSSFRCSSSSFSEKHHNAKSPKSDDIVELPLFPLPLVLFPGAILPLQIFEFRYRIMMHTLLQSDLRFGVVYSDSVSGSAAEVGCVGEVVKHERLVDDRFFLVCKGQERFRVTNVVRTKPYLVGEVTWLEDRPSGEENLDSLANEVEVLMKEVIRLSNRLNGKAEKEVQDLRRNQFPTPFSFFVGSTFEGAPREQQALLELEDTAARLKRERETLRNTLNYLTAASAVKDVFPSSS”, “failed”.
In the case of “MALQSSVRAFKKPPRPLVDEVRFLRSWIEKPLHMGAVMPSGKLLARTMARYVDIQSDGPVIELGPGTGAITNALVEHGVDQKRLVLLEFDPGFCALLRERFPLAKVVQGDAYRLRDSLWDALEIPATAVVSGLPLVTKPMLTRMKLIRDAFTLLEPGAPFVQFTYSVAPPIPKSLPGVSTEGSERIWMNVPPARVWVYRKRLEHHHHHH”, the protein production result was “failed”.
